Experimental data: patent US12723100 (CSPC MEGALITH BIOPHARMACEUTICAL, dated 2026)

Columns and labels:
[1] = biological target: T1, full-length human Nectin-4 on cells (human, UniProt Q96NY8 32-510); assay: flow cytometry, CHO-Nectin-4 cells
T1 construct: the cell is named under assay; also called CHO-Nectin-4 cells; Nectin-4-CHO
T1 sequence: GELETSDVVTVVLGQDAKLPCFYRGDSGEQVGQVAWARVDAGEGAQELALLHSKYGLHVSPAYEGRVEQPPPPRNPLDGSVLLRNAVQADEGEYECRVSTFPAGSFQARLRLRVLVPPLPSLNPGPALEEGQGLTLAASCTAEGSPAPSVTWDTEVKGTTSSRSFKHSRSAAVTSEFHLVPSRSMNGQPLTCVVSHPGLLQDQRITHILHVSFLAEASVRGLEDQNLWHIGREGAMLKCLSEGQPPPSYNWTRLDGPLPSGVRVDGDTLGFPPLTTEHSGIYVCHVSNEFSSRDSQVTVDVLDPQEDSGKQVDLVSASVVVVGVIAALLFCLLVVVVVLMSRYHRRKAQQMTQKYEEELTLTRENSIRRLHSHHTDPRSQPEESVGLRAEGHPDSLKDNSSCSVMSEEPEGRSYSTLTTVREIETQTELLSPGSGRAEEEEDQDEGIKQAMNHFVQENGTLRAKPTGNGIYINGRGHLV
Description: (§1) The binding specificity of the disclosed anti-Nectin-4 antibodies was also assessed by FACS. Briefly, CHO-Nectin-4 cells (vs. parental CHO cells) or endogenous cell lines expressing Nectin-4 (T-47D) were incubated with dilutions of purified recombinant antibodies. Cells were washed, and specific antibody binding was detected with Alexa 647 labeled goat anti-mouse IgG antibody. Flow cytometric analysis was performed on a flow cytometry instrument (Intellicyte, IQue plus, Sartorius).
(§2) N4_mAb 1 to N4_mAb 8 antibodies bind to CHO-Nectin-4 cells and SKBR3 cells by FACS.

[2] = biological target: T1, full-length human Nectin-4 on cells; assay: cell-based or functional assay
[3] = biological target: T1, full-length human Nectin-4 on cells; assay: flow cytometry, SKBR3 cells (endogenous Nectin-4)
Description: as §1, §2

[4] = biological target: T2, cynomolgus monkey Nectin-4 (cynomolgus monkey, UniProt Q96NY8 32-510 (human entry)); assay: flow cytometry, transfected 293T cells; +++ EC50 less than 5 nM
T2 construct: Transiently expressed on 293T cells; also called Cyno Nectin-4
T2 chain: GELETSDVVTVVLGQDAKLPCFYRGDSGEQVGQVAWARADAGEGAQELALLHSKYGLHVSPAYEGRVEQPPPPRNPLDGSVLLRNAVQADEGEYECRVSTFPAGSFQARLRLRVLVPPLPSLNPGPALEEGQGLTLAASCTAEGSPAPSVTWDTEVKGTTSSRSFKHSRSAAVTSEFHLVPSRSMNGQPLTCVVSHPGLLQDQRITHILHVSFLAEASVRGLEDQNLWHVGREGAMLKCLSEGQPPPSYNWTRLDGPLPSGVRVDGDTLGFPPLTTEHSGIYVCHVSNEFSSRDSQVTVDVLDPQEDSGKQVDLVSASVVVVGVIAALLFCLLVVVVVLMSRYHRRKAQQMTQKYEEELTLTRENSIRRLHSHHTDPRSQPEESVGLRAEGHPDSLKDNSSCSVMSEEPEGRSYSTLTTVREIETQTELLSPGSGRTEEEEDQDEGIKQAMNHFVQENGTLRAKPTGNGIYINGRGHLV
Description: CDNAs encoding Nectin-4 protein from cynomolgus monkey (SEQ ID NO: 62), rat (SEQ ID NO: 63), or mouse (SEQ ID NO: 64) were separately cloned into a pcDNA3.1-based mammalian expression plasmid. The respective plasmids were transfected to human 293T cells in a similar way described in Example 6. The binding EC50 of disclosed human Nectin-4 antibodies to species-specific Nectin-4 transiently expressed on 293T cell surface was measured by flow cytometry.

[5] = biological target: T3, recombinant human Nectin4-His protein (human, UniProt Q96NY8 32-349); assay: SPR (BIAcore 3000), antibody captured by anti-human IgG, Nectin4-His as analyte
T3 construct: Analyte of the SPR assay; May be the same protein as m12; also called human Nectin-4 ECD; not shown: His tag
T3 sequence: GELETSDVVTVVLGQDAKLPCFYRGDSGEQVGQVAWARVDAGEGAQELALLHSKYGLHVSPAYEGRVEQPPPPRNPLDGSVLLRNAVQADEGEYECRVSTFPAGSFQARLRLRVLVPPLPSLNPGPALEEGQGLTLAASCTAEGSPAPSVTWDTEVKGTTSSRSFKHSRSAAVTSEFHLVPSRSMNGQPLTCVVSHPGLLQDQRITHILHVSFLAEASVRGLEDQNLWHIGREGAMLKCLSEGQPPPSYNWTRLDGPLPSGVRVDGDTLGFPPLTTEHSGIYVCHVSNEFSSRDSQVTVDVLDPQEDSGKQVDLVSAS
Description: The binding kinetics of the disclosed anti-Nectin-4-specific antibodies to recombinant human Nectin-4 was determined by Surface plasmon resonance (SPR) using BIAcore 3000 system. Briefly, CM5 chip was immobilized via amine coupling chemistry with anti-human IgG antibody (GE, Cat No BR-1000-12, lot 10283568) following the application wizards on Flow cell 4. Flow cell 3 remained unmodified to serve as a reference cell for subtraction of systematic instrument noise and drift. Run Fc4-3 detection with double blank (Fc3 and blank analyte buffer). Antibody samples were diluted to 1 ug/mL in HBS-EP and injected at a flow rate of 10 ul/min for 1 minute. Analyte recombinant human Nectin4-His protein was diluted from 10 to 0.156 nM ([…], 5 points to 0 nM in HBS-EP buffer) and injected at 50 uL/minute for 2 minutes, followed by 6 minutes dissociation. All the analyses were performed with double blanks, Fc3 and blank analyte buffer, to reduce the background. Data were analyzed using BIAevaluation software (version 4.1.1) by 1:1 binding with mass transfer model with global fit to determine apparent binding kinetics.

[6] = biological target: T1, full-length human Nectin-4 on cells; assay: flow cytometry competition on CHO-Nectin-4 cells; competitor biotinylated human Nectin-1-His
Description: The ability of disclosed Nectin4-specific antibodies to block Nectin-1 binding to Nectin-4 expressing cells (CHO cells transfected with human Nectin-4) was determined by FACS. Briefly, CHO-Nectin-4 cells were incubated with dilutions of the disclosed Nectin-4 purified recombinant antibodies. Then, biotinylated human Nectin-1 with His tag (ACROBiosystems, catalog number: PV1-H5223, lot: 733-38GS1-47, 0.75 ug/ml) was added to the plate. After 30-minute incubation, cells were washed, followed by adding Streptavidin Alexa 647 (1:1000) to the samples. After a 30 minute incubation, the samples were analyzed on a flow cytometry instrument (Intellicyte, IQue plus, Sartorius) for Nectin-1 blocking activity. The positive control antibody used in this blocking assay is a reference antibody (known to be a recombinant Nectin-4 specific antibody, made by Novarock Biotherapeutics, lot: 03042020KD).

Binder | EC50 [1] [nM] | Endocytosis EC50 (cell killing with MMAF-conjugated Fab anti-hFc), Nectin-4-CHO cells [2] [nM] | Endocytosis EC50 (cell killing with MMAF-conjugated Fab anti-hFc), SKBR3 cells [2] [nM] | EC50 [3] [nM] | EC50 [4] [nM] | Kd [5] [nM] | EC50 [6] [nM]
N4_mAb 1 (antibody, human IgG1, V domains shown, Tested as chimera (murine variable regions, human IgG1/kappa constants); not shown: human IgG1 constant region (Uniprot P01857); human Kappa light chain constant region (UniProt P01834)) VH: QVQLKQSGPGLVQPSQSLSITCTVSGFSLTNYGVNWVRQPPGKGLEWLGVIWSGGSTDYNAAFISRLSISKDISKSQVFFKMNSLQADDTAKYYCAREGYDGYAMDYWGQGTSVTVSS VL: DIQMTQSPASLSVSVGETVTITCRASENIFSSLAWYQQKQGKSPQLLVYGATNLADGVPSRFSGSGSGTQYSLKINSLQSEDFGTYWCQHFWGNPWTFGGGTKLEIK | 0.29 | 0.36 | 2.14 | 0.24 | < 5 | 1.25 | 0.78
N4_mAb 6 (antibody, human IgG1, V domains shown, Tested as chimera (murine variable regions, human IgG1/kappa constants); not shown: human IgG1 constant region (Uniprot P01857); human Kappa light chain constant region (UniProt P01834)) VH: QVQLQQSGPELVKPGASVRISCKASGYTFTTYYIHWVKQRPGQGLEWIGWIYPGNVNTKYTENFKDKATLTADKSSSTAYMQLSSLTSEDSAVYFCARGLYYFDFWGQGTTLTVSS VL: SIVMTQTPKFLLVSAGDRVTITCKASQSVNNDVAWYQQKPGQSPKLLIYYASNRDTGVPDRFTGSGFGTDFTFTISSVQAEDLAVYFCQQDYSSPYTFGGGTKLEIK | 0.12 | 0.44 | 1.78 | 0.04 | < 5 | 0.392 | 0.12
N4_mAb 7 (antibody, human IgG1, V domains shown, Tested as chimera (murine variable regions, human IgG1/kappa constants); not shown: human IgG1 constant region (Uniprot P01857); human Kappa light chain constant region (UniProt P01834)) VH: QVQLQQSGPELVKPGASVKMSCKASGYTFTTYYIHWVKQRPGQGLEWIGWIYPGNAGIKSNEKFKGKTTLTADKSSSTAYMLLSSLTSEDSAIYFCARGVYFFDYWGQGTTLTVSS VL: SIVMTQTPKFLLVSAGDRVTITCKASQSVNNDVSWFQQKPGQSPKLLIYYASNRYTGVPDRFSGSGYGTDFTFTITTVQAEDLAVYFCQQDYSSPYTFGGGTKLEIK | 0.18 | 0.21 | 0.61 | 0.05 | < 5 | 0.39 | 0.21
N4_mAb 8 (antibody, human IgG1, V domains shown, Tested as chimera (murine variable regions, human IgG1/kappa constants); not shown: human IgG1 constant region (Uniprot P01857); human Kappa light chain constant region (UniProt P01834)) VH: QVQLQQSGPVLVKPGASVRISCKASGYTFTSYYIHWVKQRPGQGLEWIGWIYPGNVNTKYNENFRDKATLTADKSSSTSYMQLSSLTSEDSAVYFCARGIYYFDYWGQGTTLTVSS VL: IIVMTQTPKFLLVSAGDRVTITCKASQSVNNDVAWYQEKPGQSPKLLIYYASNRDTGVPDRFTGSGYGTDFTFTISTVQAEDLAVYFCHQDYSSPFTFGSGTKLEIK | 0.23 | 0.43 | 0.99 | 0.05 | < 5 | 0.375 | 0.33
N4_mAb 5 (antibody, human IgG1, V domains shown, Tested as chimera (human IgG1/kappa constants); not shown: human IgG1 constant region (Uniprot P01857); human Kappa light chain constant region (UniProt P01834)) VH: EVQLQQSGPDLVKPGASVKISCKASGYSFTGHYMHWVKQSHGKSLEWIGRVNPNNGGSSYNQKFKDKAILTVDKSSTTAYMELRSLTSEDSAVYYCARDPLGGSYGFAYWGQGTLVTVSA VL: DIVLTQSPASLAVSLGQRATISCRASQSVTTSSYSYMHWYQQKPGQPPKLLIKYASNLESGVPARFSGSGSGTDFTLNIHPVEEEDTATYYCQHSWEIPYTFGGGTKLEMK | 0.38 | 0.45 | 0.85 | 0.52 | < 5 | 1.58 | 0.5
N4_mAb 3 (antibody, human IgG1, V domains shown, Tested as chimera (human IgG1/kappa constants); not shown: human IgG1 constant region (Uniprot P01857); human Kappa light chain constant region (UniProt P01834)) VH: EVQLQQSGAELVKPGASVKLSCTVSGFNIKDTYMHWVKQRPEQGLEWIGRIDPANGNTKYDPKFQGKATIIADKASNTAYLQLSSLTSEDAAVYYCAHYYGSSYFAMDCWGQGTSVTVSS VL: DIVMTQSHKFMSTSVGDRVSITCKASQDVSTAVAWYQQKPGQSPKLLIYWASTRHTGVPDRFTGSGSGTDYTLTISSVQTEDLALYYCQQHYSTPLTFGAGTKLELK | 0.75 | 0.53 | 0.63 | 45 | < 5 | 17.2 | 0.3
N4_mAb 4 (antibody, human IgG1, V domains shown, Tested as chimera (human IgG1/kappa constants); not shown: human IgG1 constant region (Uniprot P01857); human Kappa light chain constant region (UniProt P01834)) VH: DVQLQESGPDLVKPSQSLSLTCTVTGYSITSAYNWHWIRQFPGNKLEWMGYIHYSGRTNYNPSLKSRISITRDTSKNQFFLQLNSLTTEDTATYYCARWITTATGWYLDVWGAGTTVTVSS VL: not shown | 0.57 | 0.63 | 1.58 | 1.8 | < 5 | 1.26 | –
N4_mAb 2 (antibody, human IgG1, V domains shown, Tested as chimera (human IgG1/kappa constants); not shown: human IgG1 constant region (Uniprot P01857); human Kappa light chain constant region (UniProt P01834)) VH: QVQLKQSGPNLVQPSQSLSITCTVSGFSLTTYGAHWVRQSPGKGLEWLGVIWRGGSTDYNAAFMSRLSITKDNSKSQVFFKMNSLQADDTAIYYCAKIGYDGYAMDNWGQGTSVTVSS VL: DFQVTQSPASLSASVGETVTITCRTSENIHNYLAWYQQKQGKSPQLLVYNAKTLADGVPSRFSGSGSGTQYSLKINSLQPEDFGTYYCQHFWSSPWTFGGGTKLEIK | 0.64 | 0.56 | 0.74 | 1.8 | < 5 | 0.884 | 0.64
